Molecular target: purified SARS-CoV-2 RBD (limits of the construct not stated) (SARS-CoV-2, UniProt P0DTC2 331-550)
Assay: told in the legend of the ELISA figure (Fig. 38)

B1: S309-14 (S309 with VH W105F mutation) (antibody, V domains shown)
VH: not shown
VL: EIVLTQSPGTLSLSPGERATLSCRASQTVSSTSLAWYQQKPGQAPRLLIYGASSRATGIPDRFSGSGSGTDFTLTISRLEPEDFAVYYCQQHDTSLTFGGGTKVEIK
B1: binds.
